In patent US20250206828A1, “ANTI-ADENOSINE RECEPTOR (A2aR) ANTIBODIES AND THE USE THEREOF” (Adept Therapeutics Inc., priority 2022, published 2025):

Molecular target: T1, human adenosine A2A receptor (A2aR) (human, UniProt P29274 1-412)
T1 construct: Assays used HEK293 cells stably overexpressing human A2aR (BPS Bioscience 79381), human A2aR-expressing CHO cells, or endogenous A2aR on human PBMC; also called human A2aR; hA2aR
Assay: flow cytometry, HEK293-hA2aR cells, supernatant 1 ug/ml

T1 sequence (P29274 whole entry): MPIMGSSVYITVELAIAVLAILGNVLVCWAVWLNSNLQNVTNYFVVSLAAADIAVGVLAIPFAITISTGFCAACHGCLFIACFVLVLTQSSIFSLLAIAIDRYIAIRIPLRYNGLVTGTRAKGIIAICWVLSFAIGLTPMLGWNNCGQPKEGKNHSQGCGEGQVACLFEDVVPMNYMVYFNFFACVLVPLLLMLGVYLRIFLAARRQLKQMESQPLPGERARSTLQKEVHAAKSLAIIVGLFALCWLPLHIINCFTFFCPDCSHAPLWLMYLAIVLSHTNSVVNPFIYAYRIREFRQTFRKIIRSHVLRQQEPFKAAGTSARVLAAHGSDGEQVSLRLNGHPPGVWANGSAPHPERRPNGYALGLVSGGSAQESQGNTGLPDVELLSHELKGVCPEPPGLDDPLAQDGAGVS

| MFI | Binder |
| --- | --- |
| 1420 MFI | Hu3F6-H1/Hu3F6-L8 (antibody, human IgG1, V domains shown, Human IgG1 FES (L234F, L235E, P331S) and human Ig kappa constant domains) VH: QVQLVQSGAEVKKPGASVKVSCKASGFAFTSYWMNWVRQAPGQGLEWMGRIDPSDSEAHYHHKFWGRVTMTRDTSTSTVYMELSSLRSEDTAVYYCLRSLYGKGDYWGHGTTVTVSS VL: DVVMTQSPLSLPVTPGEPASISCRSSQSLVHRNGNTYLEWYLQKPGQSPQLLIYKVSNRFSGVPDRFSGSGSGTDFTLKISRVEAEDVGVYYCYQGSHVPLTFGGGTKVEIK |
| 1710 MFI | Hu3F6-H4/Hu3F6-L8 (antibody, human IgG1, V domains shown, Human IgG1 FES (L234F, L235E, P331S) and human Ig kappa constant domains) VH: EVQLVQSGAEVKKPGASVKVSCKTSGFAFTSYWMNWVRQAPGQGLEWIGRIDPSDSEAHYHHKFWGRATLTVDKSSSTVYMELSSLRSEDTAVYYCLRSLYGKGDYWGHGTTVTVSS VL: DVVMTQSPLSLPVTPGEPASISCRSSQSLVHRNGNTYLEWYLQKPGQSPQLLIYKVSNRFSGVPDRFSGSGSGTDFTLKISRVEAEDVGVYYCYQGSHVPLTFGGGTKVEIK |
| 2000 MFI | Hu3F6-H6/Hu3F6-L8 (antibody, human IgG1, V domains shown, Human IgG1 FES (L234F, L235E, P331S) and human Ig kappa constant domains) VH: EVQLVQSGAEVKKPGESLRISCKASGFAFTSYWMNWVRQMPGKGLEWIGRIDPSDSEAHYHHKFWGHATLSVDKSSSTVYLQWSSLKASDTAMYYCLRSLYGKGDYWGHGTTVTVSS VL: DVVMTQSPLSLPVTPGEPASISCRSSQSLVHRNGNTYLEWYLQKPGQSPQLLIYKVSNRFSGVPDRFSGSGSGTDFTLKISRVEAEDVGVYYCYQGSHVPLTFGGGTKVEIK |
| 27 MFI | Hu3F6-H6/Hu3F6-L1 (antibody, human IgG1, V domains shown, Human IgG1 FES (L234F, L235E, P331S) and human Ig kappa constant domains) VH: EVQLVQSGAEVKKPGESLRISCKASGFAFTSYWMNWVRQMPGKGLEWIGRIDPSDSEAHYHHKFWGHATLSVDKSSSTVYLQWSSLKASDTAMYYCLRSLYGKGDYWGHGTTVTVSS VL: DVVMTQSPLSLPVTLGQPASISCRSSQSLVHRNGNTYLEWFQQRPGQSPRRLIYKVSNRFSGVPDRFSGSGSGTDFTLKISRVEAEDVGVYYCYQGSHVPLTFGGGTKVEIK |
| 17 MFI | Hu3F6-H6/Hu3F6-L2 (antibody, human IgG1, V domains shown, Human IgG1 FES (L234F, L235E, P331S) and human Ig kappa constant domains) VH: EVQLVQSGAEVKKPGESLRISCKASGFAFTSYWMNWVRQMPGKGLEWIGRIDPSDSEAHYHHKFWGHATLSVDKSSSTVYLQWSSLKASDTAMYYCLRSLYGKGDYWGHGTTVTVSS VL: DVVMTQSPLSLPVTLGQPASISCRSSQSLVHRNGNTYLEWYQQRPGQSPRRLIYKVSNRFSGVPDRFSGSGSGTDFTLKISRVEAEDVGVYYCYQGSHVPLTFGGGTKVEIK |
| 2090 MFI | Hu3F6-H6/Hu3F6-L3 (antibody, human IgG1, V domains shown, Human IgG1 FES (L234F, L235E, P331S) and human Ig kappa constant domains) VH: EVQLVQSGAEVKKPGESLRISCKASGFAFTSYWMNWVRQMPGKGLEWIGRIDPSDSEAHYHHKFWGHATLSVDKSSSTVYLQWSSLKASDTAMYYCLRSLYGKGDYWGHGTTVTVSS VL: DVVMTQSPLSLPVTLGQPASISCRSSQSLVHRNGNTYLEWYQQRPGQSPRLLIYKVSNRFSGVPDRFSGSGSGTDFTLKISRVEAEDVGVYYCYQGSHVPLTFGGGTKVEIK |
| 2000 MFI | Hu3F6-H6/Hu3F6-L4 (antibody, human IgG1, V domains shown, Human IgG1 FES (L234F, L235E, P331S) and human Ig kappa constant domains) VH: EVQLVQSGAEVKKPGESLRISCKASGFAFTSYWMNWVRQMPGKGLEWIGRIDPSDSEAHYHHKFWGHATLSVDKSSSTVYLQWSSLKASDTAMYYCLRSLYGKGDYWGHGTTVTVSS VL: DIVMTQTPLSLSVTPGQPASISCRSSQSLVHRNGNTYLEWYLQKPGQSPQLLIYKVSNRFSGVPDRFSGSGSGTDFTLKISRVEAEDVGVYYCYQGSHVPLTFGGGTKVEIK |
| 1980 MFI | Hu3F6-H6/Hu3F6-L5 (antibody, human IgG1, V domains shown, Human IgG1 FES (L234F, L235E, P331S) and human Ig kappa constant domains) VH: EVQLVQSGAEVKKPGESLRISCKASGFAFTSYWMNWVRQMPGKGLEWIGRIDPSDSEAHYHHKFWGHATLSVDKSSSTVYLQWSSLKASDTAMYYCLRSLYGKGDYWGHGTTVTVSS VL: DVVMTQTPLSLSVTPGQPASISCRSSQSLVHRNGNTYLEWYLQKPGQSPQLLIYKVSNRFSGVPDRFSGSGSGTDFTLKISRVEAEDVGVYYCYQGSHVPLTFGGGTKVEIK |
| 979 MFI | Hu3F6-H6/Hu3F6-L6 (antibody, human IgG1, V domains shown, Human IgG1 FES (L234F, L235E, P331S) and human Ig kappa constant domains) VH: EVQLVQSGAEVKKPGESLRISCKASGFAFTSYWMNWVRQMPGKGLEWIGRIDPSDSEAHYHHKFWGHATLSVDKSSSTVYLQWSSLKASDTAMYYCLRSLYGKGDYWGHGTTVTVSS VL: DIVMTQTPPSLPVNPGEPASISCRSSQSLVHRNGNTYLEWYLQKPGQSPQLLIYKVSNRFSGVPDRFSGSGSGSDFTLKISWVEAEDVGVYYCYQGSHVPLTFGGGTKVEIK |
| 1170 MFI | Hu3F6-H6/Hu3F6-L7 (antibody, human IgG1, V domains shown, Human IgG1 FES (L234F, L235E, P331S) and human Ig kappa constant domains) VH: EVQLVQSGAEVKKPGESLRISCKASGFAFTSYWMNWVRQMPGKGLEWIGRIDPSDSEAHYHHKFWGHATLSVDKSSSTVYLQWSSLKASDTAMYYCLRSLYGKGDYWGHGTTVTVSS VL: DVVMTQTPPSLPVNPGEPASISCRSSQSLVHRNGNTYLEWYLQKPGQSPQLLIYKVSNRFSGVPDRFSGSGSGSDFTLKISWVEAEDVGVYYCYQGSHVPLTFGGGTKVEIK |
| 15 MFI | Hu3F6-H1/Hu3F6-L1 (antibody, human IgG1, V domains shown, Human IgG1 FES (L234F, L235E, P331S) and human Ig kappa constant domains) VH: QVQLVQSGAEVKKPGASVKVSCKASGFAFTSYWMNWVRQAPGQGLEWMGRIDPSDSEAHYHHKFWGRVTMTRDTSTSTVYMELSSLRSEDTAVYYCLRSLYGKGDYWGHGTTVTVSS VL: DVVMTQSPLSLPVTLGQPASISCRSSQSLVHRNGNTYLEWFQQRPGQSPRRLIYKVSNRFSGVPDRFSGSGSGTDFTLKISRVEAEDVGVYYCYQGSHVPLTFGGGTKVEIK |
